Blank lines part the entries; values can stand above or below the binder they belong to.
Experiments:
[1] = biological target: human PD-L1 on cells (human, UniProt Q9NZQ7 19-290); test: cell-based or functional assay
[2] = biological target: CD137 on Jurkat NFkB reporter cells (human, UniProt Q07011 24-255); test: cell-based or functional assay

IC50, NFAT-luciferase reporter gene assay [1]: 0.0429 µg/mL
B1: PRO830 (scFv)
scFv: DIQMTQSPSSLSASVGDRVTITCQASQSINDYLAWYQQKPGKAPKLLIYKASTLASGVPSRFSGSGSGTDFTLTISSLQPEDFATYYCQQGYIITDIDNVFGTGTKVTVLGGGGGSGGGGSGGGGSGGGGSQVQLQESGPGLVKPSETLSLTCKVSGFSFSSGYDMCWIRQPPGKGLEWIGCVVAGSVDITYYASWAKGRVTISVDSSKNQFSLKLSSVTAADTAVYYCARKDAYSDAFNLWGQGTLVTVSS

IC50, NFAT-luciferase reporter gene assay [1]: 0.0938 µg/mL
B2: PRO1059 (bispecific antibody, human IgG1, kappa, L234A L235A)
light: DIQMTQSPSSLSASVGDRVTITCQASQSINDYLAWYQQKPGKAPKLLIYKASTLASGVPSRFSGSGSGTDFTLTISSLQPEDFATYYCQQGYIITDIDNVFGTGTKVTVLGTVAAPSVFIFPPSDEQLKSGTASVVCLLNNFYPREAKVQWKVDNALQSGNSQESVTEQDSKDSTYSLSSTLTLSKADYEKHKVYACEVTHQGLSSPVTKSFNRGECGGGGSGGGGSIQMTQSPSSLSASVGDRVTITCQASQSINNVLAWYQQKPGKAPKLLIYRASTLASGVPSRFSGSGSGTDFTLTISSLQPEDFATYYCQSSYGNYGDFGTGTKVTVLGGGGGSGGGGSGGGGSGGGGSQVQLQESGPGLVKPSETLSLTCKVSGFSFSNSYWICWIRQPPGKGLEWIGCTFVGSSDSTYYANWAKGRVTISVDSSKNQFSLKLSSVTAADTAVYYCARHPSDAVYGYANNLWGQGTLVTVSS
heavy: QVQLQESGPGLVKPSETLSLTCKVSGFSFSSGYDMCWIRQPPGKGLEWIGCVVAGSVDITYYASWAKGRVTISVDSSKNQFSLKLSSVTAADTAVYYCARKDAYSDAFNLWGQGTLVTVSSASTKGPSVFPLAPSSKSTSGGTAALGCLVKDYFPEPVTVSWNSGALTSGVHTFPAVLQSSGLYSLSSVVTVPSSSLGTQTYICNVNHKPSNTKVDKRVEPKSCDKTHTCPPCPAPEAAGGPSVFLFPPKPKDTLMISRTPEVTCVVVDVSHEDPEVKFNWYVDGVEVHNAKTKPREEQYNSTYRVVSVLTVLHQDWLNGKEYKCKVSNKALGAPIEKTISKAKGQPREPQVYTLPPSREEMTKNQVSLTCLVKGFYPSDIAVEWESNGQPENNYKTTPPVLDSDGSFFLYSKLTVDKSRWQQGNVFSCSVMHEALHNHYTQKSLSLSPGK

max. activation (%), NF-kB reporter, CHO-PD-L1, HSA yes, 24h [2]: 369%
IC50, NFAT-luciferase reporter gene assay, with HSA [1]: 0.275 µg/mL
B3: PRO963 (other)
chain: DIQMTQSPSSLSASVGDRVTITCQASQSINDYLAWYQQKPGKAPKLLIYKASTLASGVPSRFSGSGSGTDFTLTISSLQPEDFATYYCQQGYIITDIDNVFGTGTKVTVLGGGGGSQVQLQESGPGLVKPSETLSLTCKVSGFSFSNSYWICWIRQPPGKGLEWIGCTFVGSSDSTYYANWAKGRVTISVDSSKNQFSLKLSSVTAADTAVYYCARHPSDAVYGYANNLWGQGTLVTVSSGGGGSGGGGSGGGGSGGGGSIQMTQSPSSLSASVGDRVTITCQASQSINNVLAWYQQKPGKAPKLLIYRASTLASGVPSRFSGSGSGTDFTLTISSLQPEDFATYYCQSSYGNYGDFGTGTKVTVLGGGGGSQVQLQESGPGLVKPSETLSLTCKVSGFSFSSGYDMCWIRQPPGKGLEWIGCVVAGSVDITYYASWAKGRVTISVDSSKNQFSLKLSSVTAADTAVYYCARKDAYSDAFNLWGQGTLVTVSSGGGGSGGGGSIQMTQSPSSLSASVGDRVTITCQSSESVYSNNQLSWYQQKPGQPPKLLIYDASDLASGVPSRFSGSGSGTDFTLTISSLQPEDFATYYCAGGFSSSSDTAFGGGTKLTVLGGGGGSGGGGSGGGGSGGGGSEVQLVESGGGLVQPGGSLRLSCAASGFSLSSNAMGWVRQAPGKGLEYIGIISVGGFTYYASWAKGRFTISRDNSKNTVYLQMNSLRAEDTATYFCARDRHGGDSSGAFYLWGQGTLVTVSS

IC50, NFAT-luciferase reporter gene assay [1]: 0.0213 µg/mL
B4: PRO1013 (scFv)
scFv: DIQMTQSPSSLSASVGDRVTITCQASQSIGTYLAWYQQKPGKAPKLLIYRAFILASGVPSRFSGSGSGTDFTLTISSLQPEDFATYYCQSNFYSDSTTIGPNAFGTGTKVTVLGGGGGSGGGGSGGGGSGGGGSQVQLVQSGAEVKKPGASVKVSCKASGFSFNSDYWIYWVRQAPGQGLEWMGSIYGGSSGNTQYASWAQGRVTMTRDTSISTAYMELSSLRSEDTAVYYCARGYVDYGGATDLWGQGTLVTVSS

Reference: patent EP3470426A1 (Numab Therapeutics AG, dated 2019)
